# Test results reported in article PMC8092224.
# Molecular target: RBD-ferritin fusion protein (SARS-CoV-2 spike RBD-… linker-H. pylori-bullfrog ferritin) (SARS-CoV-2 Wuhan-Hu-1 strain | bullfrog (Rana catesbeiana) | Helicobacter pylori)
# Assay: SEC; concentrated supernatant (500-kDa MWCO TFF) on HiPrep 16/60 Sephacryl S-500 HR, degassed PBS, 0.4 ml/min; size from LMW/HMW calibration standards; self-assembly of the monomer into the nanoparticle
substance,measurement,value
RBD-ferritin fusion protein (SARS-CoV-2 spike RBD-… linker-H. pylori-bullfrog ferritin),stoichiometry N,24
